Laboratory results published in the supplement of paper PMC10567573.

B1: C22orf31 (parent)
chain: YSLELGKAIKQKLWEALCSQGAIS

Variants of: B1
Assay: protein stability index of a GFP-peptide fusion (GPS, HEK-293T) (PSI 1-6); higher = more stable
Conditions: c terminus: a fixed tail appended
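Note: lentivirally expressed fusions sorted by FACS into six bins by GFP to DsRed ratio, PSI derived from sequencing read proportions per bin multiplied by bin number.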

Protein stability index: each site, then its substitutions
L17: N 1.86; P 2.08; Q 1.87; R 2.25; S 2.41; T 2.26; V 3.22; W 1.19; Y 2.06
C18: A 1.69; D 2.09; E 2.17; F 1.64; G 1.53; H 1.66; I 3.32; K 4.02; M 2.12; N 3.44; P 2.26; S 1.91; V 2.29; Y 2.52
S19: A 4.18; C 2.31; D 1.88; F 2.56; N 3.94; Q 1.95; R 2.46
Q20: E 2.79; F 1.95; G 3.45; I 2.97; N 1.62; P 2.21; R 2.99; V 2.58
G21: A 4.53; D 1.94; F 2.94; I 4.15; N 3.07
A22: D 1.59; K 3.13; R 3.87; S 3.11
I23: A 1.75; D 1.62; E 2.37; H 1.63; M 2.22; N 1.7; P 1.6; S 2.85
S24: A 2.68; H 2.01; N 2.63; Q 2.92; R 2.69; T 1.83; Y 3.7
